For the assay, the target named is T1, recombinant KDM5B (human), Q9UGL1.
T1 chain: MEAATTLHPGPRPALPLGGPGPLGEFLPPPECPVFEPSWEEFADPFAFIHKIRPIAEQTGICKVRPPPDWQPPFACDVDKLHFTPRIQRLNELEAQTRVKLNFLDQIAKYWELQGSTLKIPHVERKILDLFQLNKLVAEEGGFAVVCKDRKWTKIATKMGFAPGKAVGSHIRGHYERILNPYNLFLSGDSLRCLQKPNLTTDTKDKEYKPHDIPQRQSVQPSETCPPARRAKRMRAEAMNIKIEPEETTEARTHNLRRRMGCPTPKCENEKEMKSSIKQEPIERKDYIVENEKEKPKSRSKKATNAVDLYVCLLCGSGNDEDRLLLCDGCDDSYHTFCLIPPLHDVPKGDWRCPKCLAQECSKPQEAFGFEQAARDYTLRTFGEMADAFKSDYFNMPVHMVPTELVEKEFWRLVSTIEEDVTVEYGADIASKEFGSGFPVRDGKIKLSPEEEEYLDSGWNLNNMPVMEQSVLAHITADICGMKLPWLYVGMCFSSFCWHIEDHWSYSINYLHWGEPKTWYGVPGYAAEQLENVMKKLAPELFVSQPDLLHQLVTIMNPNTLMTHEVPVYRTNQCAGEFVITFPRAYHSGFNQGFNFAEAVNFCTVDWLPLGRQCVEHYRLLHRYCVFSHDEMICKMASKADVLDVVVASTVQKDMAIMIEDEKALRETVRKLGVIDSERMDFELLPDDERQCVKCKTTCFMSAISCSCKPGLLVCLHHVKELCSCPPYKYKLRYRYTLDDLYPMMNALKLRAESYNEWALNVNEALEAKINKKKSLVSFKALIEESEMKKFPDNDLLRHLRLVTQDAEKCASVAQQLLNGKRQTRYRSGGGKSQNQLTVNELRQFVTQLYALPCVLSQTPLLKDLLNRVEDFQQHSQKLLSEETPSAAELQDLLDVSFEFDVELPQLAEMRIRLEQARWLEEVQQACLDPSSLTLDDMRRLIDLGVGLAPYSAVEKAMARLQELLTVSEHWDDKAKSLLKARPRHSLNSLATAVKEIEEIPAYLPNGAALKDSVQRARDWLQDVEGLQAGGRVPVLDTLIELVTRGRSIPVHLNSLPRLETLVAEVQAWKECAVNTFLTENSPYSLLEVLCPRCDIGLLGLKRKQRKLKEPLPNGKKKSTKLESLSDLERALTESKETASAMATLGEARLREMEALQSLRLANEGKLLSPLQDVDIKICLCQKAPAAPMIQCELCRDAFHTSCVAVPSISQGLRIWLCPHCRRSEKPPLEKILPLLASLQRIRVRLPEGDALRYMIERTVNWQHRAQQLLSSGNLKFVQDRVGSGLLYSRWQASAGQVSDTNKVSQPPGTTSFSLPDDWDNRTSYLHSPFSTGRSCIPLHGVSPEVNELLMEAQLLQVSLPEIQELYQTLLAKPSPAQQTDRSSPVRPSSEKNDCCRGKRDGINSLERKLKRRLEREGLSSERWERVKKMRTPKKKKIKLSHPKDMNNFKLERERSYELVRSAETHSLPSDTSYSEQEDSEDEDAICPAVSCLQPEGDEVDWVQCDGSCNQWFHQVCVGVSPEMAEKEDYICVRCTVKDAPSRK
Kind of assay: native gel or EMSA. The following applies: remark: other sources report otherwise.

B1: recombinant KDM5B, Q9UGL1 1-1544 (natural protein)
chain: MEAATTLHPGPRPALPLGGPGPLGEFLPPPECPVFEPSWEEFADPFAFIHKIRPIAEQTGICKVRPPPDWQPPFACDVDKLHFTPRIQRLNELEAQTRVKLNFLDQIAKYWELQGSTLKIPHVERKILDLFQLNKLVAEEGGFAVVCKDRKWTKIATKMGFAPGKAVGSHIRGHYERILNPYNLFLSGDSLRCLQKPNLTTDTKDKEYKPHDIPQRQSVQPSETCPPARRAKRMRAEAMNIKIEPEETTEARTHNLRRRMGCPTPKCENEKEMKSSIKQEPIERKDYIVENEKEKPKSRSKKATNAVDLYVCLLCGSGNDEDRLLLCDGCDDSYHTFCLIPPLHDVPKGDWRCPKCLAQECSKPQEAFGFEQAARDYTLRTFGEMADAFKSDYFNMPVHMVPTELVEKEFWRLVSTIEEDVTVEYGADIASKEFGSGFPVRDGKIKLSPEEEEYLDSGWNLNNMPVMEQSVLAHITADICGMKLPWLYVGMCFSSFCWHIEDHWSYSINYLHWGEPKTWYGVPGYAAEQLENVMKKLAPELFVSQPDLLHQLVTIMNPNTLMTHEVPVYRTNQCAGEFVITFPRAYHSGFNQGFNFAEAVNFCTVDWLPLGRQCVEHYRLLHRYCVFSHDEMICKMASKADVLDVVVASTVQKDMAIMIEDEKALRETVRKLGVIDSERMDFELLPDDERQCVKCKTTCFMSAISCSCKPGLLVCLHHVKELCSCPPYKYKLRYRYTLDDLYPMMNALKLRAESYNEWALNVNEALEAKINKKKSLVSFKALIEESEMKKFPDNDLLRHLRLVTQDAEKCASVAQQLLNGKRQTRYRSGGGKSQNQLTVNELRQFVTQLYALPCVLSQTPLLKDLLNRVEDFQQHSQKLLSEETPSAAELQDLLDVSFEFDVELPQLAEMRIRLEQARWLEEVQQACLDPSSLTLDDMRRLIDLGVGLAPYSAVEKAMARLQELLTVSEHWDDKAKSLLKARPRHSLNSLATAVKEIEEIPAYLPNGAALKDSVQRARDWLQDVEGLQAGGRVPVLDTLIELVTRGRSIPVHLNSLPRLETLVAEVQAWKECAVNTFLTENSPYSLLEVLCPRCDIGLLGLKRKQRKLKEPLPNGKKKSTKLESLSDLERALTESKETASAMATLGEARLREMEALQSLRLANEGKLLSPLQDVDIKICLCQKAPAAPMIQCELCRDAFHTSCVAVPSISQGLRIWLCPHCRRSEKPPLEKILPLLASLQRIRVRLPEGDALRYMIERTVNWQHRAQQLLSSGNLKFVQDRVGSGLLYSRWQASAGQVSDTNKVSQPPGTTSFSLPDDWDNRTSYLHSPFSTGRSCIPLHGVSPEVNELLMEAQLLQVSLPEIQELYQTLLAKPSPAQQTDRSSPVRPSSEKNDCCRGKRDGINSLERKLKRRLEREGLSSERWERVKKMRTPKKKKIKLSHPKDMNNFKLERERSYELVRSAETHSLPSDTSYSEQEDSEDEDAICPAVSCLQPEGDEVDWVQCDGSCNQWFHQVCVGVSPEMAEKEDYICVRCTVKDAPSRK
Take B1: the stoichiometry N was found to be 2.

The values above are taken from publication PMC12241816.
